Laboratory results reported in patent US5705334.

Key:
[1] = tested on: h-mtTFA (human mitochondrial transcription factor A) (Homo sapiens); test: inhibition; conditions: 1 uM protein, HeLa extract excinuclease, 30 C
HMG1 = test: inhibition; conditions: cisplatin 1,2-d(GpG) intrastrand crosslink at a defined site; 1 uM protein; 20% at 0.5 uM; HeLa extract excinuclease, 30 C; EMSA also run at 1-8 uM but result not stated

## 156 bp DNA with site-specific cisplatin 1,3-d(GpTpG) intrastrand adduct
[1]; cisplatin 1,3-d(GpTpG) intrastrand crosslink at a defined site, 40% at 0.5 uM
  activity (% inhibition of repair): 75

## 156 bp DNA with site-specific cisplatin 1,2-d(GpG) intrastrand adduct
[1]; cisplatin 1,2-d(GpG) intrastrand crosslink at a defined site, 95% at 0.5 uM, 8 mM MgCl2, 2 mM ATP
  activity (% inhibition of repair): 100
HMG1
  activity (% inhibition of repair): 40
